Measurements as given in PMC11347169.

Tests used:
[1] = molecular target: Simian virus 40 large T antigen (L-Tag) (simian virus 40) (UniProt P03070)
[2] = molecular target: Human wild-type DNA polymerase δ (WT Pol δ) (human) (UniProt P28340)
[3] = molecular target: Human wild-type DNA polymerase δ (WT Pol δ) (human) (UniProt P28340); experiment: MST; His6-tagged Pol δ labelled with RED-Tris-NTA, 20 nM final; L-Tag titrated in 16 concentrations beginning with 500 nM; PBS-T buffer; incubated 40 min at 37°C; Monolith NT.115, premium-coated capillaries

Substance: Human fork protection complex (FPC): Claspin, TIMELESS, Tipin (from UniProt Q9HAW4 1-1339; Q9UNS1 1-1208; Q9BVW5 1-301)
- saturation concentration of FPC for stimulating L-Tag unwinding in the bulk assay (25 nM L-Tag, 0.5 nM forked DNA) [1]: < 8 nM

Substance: Human mini-chromosome maintenance protein 10 (Mcm10) (from UniProt Q7L590 1-875) (natural protein)
- saturation concentration of Mcm10 for stimulating L-Tag unwinding in the bulk assay (25 nM L-Tag, 0.5 nM forked DNA) [1]: < 8 nM

Substance: Simian virus 40 large T antigen (L-Tag) (from UniProt P03070 1-708) (enzyme)
- lifetime of Pol δ–PCNA on DNA in single-molecule flow-stretching assays: primer extension alone against leading-strand synthesis with L-Tag [2]: 3 min
- Kd [3]: 6.7 nM
